No end group written: not given here.
How the values were obtained:
rSdrG(50-597) [1] = target: T1, rSdrG(50-597) (Staphylococcus epidermidis K28, UniProt Q9KI13 50-597); test: inhibition ELISA, peptide varied, 50 nM rSdrG(50-597), Fg-coated wells; reference β1-25
T1 construct: Used biotin labeled in the Western ligand blots and in the ELISAs on protease-treated Fg; also called recombinant SdrG A-region; recombinant form of the N-terminal A-region of SdrG
T1 sequence: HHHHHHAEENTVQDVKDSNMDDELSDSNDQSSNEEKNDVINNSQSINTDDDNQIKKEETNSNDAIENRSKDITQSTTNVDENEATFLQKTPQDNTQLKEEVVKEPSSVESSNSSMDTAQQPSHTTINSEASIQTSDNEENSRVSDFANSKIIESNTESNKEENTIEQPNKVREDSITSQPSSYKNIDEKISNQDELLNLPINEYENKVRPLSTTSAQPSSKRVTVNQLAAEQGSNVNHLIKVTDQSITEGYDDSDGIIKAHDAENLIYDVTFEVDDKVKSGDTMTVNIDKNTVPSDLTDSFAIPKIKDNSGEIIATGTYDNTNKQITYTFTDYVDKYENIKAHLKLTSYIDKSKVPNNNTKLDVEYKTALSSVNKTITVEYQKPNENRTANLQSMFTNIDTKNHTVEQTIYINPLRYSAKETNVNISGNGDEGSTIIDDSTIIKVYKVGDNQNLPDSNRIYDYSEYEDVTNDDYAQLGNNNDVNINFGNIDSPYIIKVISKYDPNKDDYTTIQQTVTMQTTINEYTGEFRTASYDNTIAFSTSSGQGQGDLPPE

rSdrG(50-597) [2] = target: T1, rSdrG(50-597); test: Western ligand blot, biotin labeled rSdrG(50-597)
rSdrG(50-597) [3] = target: T1, rSdrG(50-597); test: inhibition ELISA, peptide varied, 50 nM rSdrG(50-597), Fg-coated wells
rSdrG(50-597) [4] = target: T1, rSdrG(50-597); test: Western ligand blot of E. coli lysates, biotin labeled rSdrG(50-597) 0.5 µM
rSdrG(50-597) [5] = target: T1, rSdrG(50-597); test: Western ligand blot
rSdrG(50-597) [6] = target: T1, rSdrG(50-597); test: fluorescence polarization, increasing rSdrG(50-597) with 10 nM fluorescein-labeled β1-25, three experiments

B1: fibrinopeptide B (peptide)
peptide: QGVNDNEEGFFSAR
notes: Bought from Bachem; also called FpB; FpB (1-14)
In the case of B1, the “fold less active than the synthetic peptide β1-25 as inhibitor” value (rSdrG(50-597) [1]) is reported as 10 fold.

B2: rβ(25-95) (ligand)
chain: EAPSLRPAPPPISGGGYRARPAKAAATQKKVERKAPDAGGCLHADPDLGVLCPTGCQLQEALLQQERPIRN
notes: range 25-95; Expressed in E. coli; whole cell lysate on the blot; The text says it lacks the N-terminal 25 residues although the name begins at 25; not shown: N-terminal His-tag or GST fusion
B2: no binding (tested: 0.5 µM) (rSdrG(50-597) [2]).

QGVNDNEEGFFSARGHRPLD (ends and bridges not checked, Synthetic peptide (Research Genetics)) [peptide β1-20]: binds (rSdrG(50-597) [3]).

B3: peptide β1-25 (peptide)
peptide: QGVNDNEEGFFSARGHRPLDKKREE
modifications: ends and bridges not checked
notes: Synthetic peptide (Research Genetics); also called unlabeled β1-25; synthetic 25 amino acid peptide representing the N-terminus of the Fg Bβ chain
B3: binds (rSdrG(50-597) [3]).

B4: rβ(1-341) (ligand)
chain: QGVNDNEEGFFSARGHRPLDKKREEAPSLRPAPPPISGGGYRARPAKAAATQKKVERKAPDAGGCLHADPDLGVLCPTGCQLQEALLQQERPIRNSVDELNNNVEAVSQTSSSSFQYMYLLKDLWQKRQKQVKDNENVVNEYSSELEKHQLYIDETVNSNIPTNLRVLRSILENLRSKIQKLESDVSAQMEYCRTPCTVSCNIPVVSGKECEEIIRKGGETSEMYLIQPDSSVKPYRVYCDMNTENGGWTVIQNRQDGSVDFGRKWDPYKQGFGNVATNTDGKNYCGLPGEYWLGNDKISQLTRMGPTELLIEMEDWKGDKVKAHYGGFTVQNEANKYQIS
notes: range 1-341; Expressed in E. coli; whole cell lysate on the blot; also called recombinant truncate encompassing residues 1-341; not shown: N-terminal His-tag or GST fusion
B4: binds (rSdrG(50-597) [4]).

B5: γ chain of Fg (ligand)
chain: YVATRDNCCILDERFGSYCPTTCGIADFLSTYQTKVDKDLQSLEDILHQVENKTSEVKQLIKAIQLTYNPDESSKPNMIDAATLKSRKMLEEIMKYEASILTHDSSIRYLQEIYNSNNQKIVNLKEKVAQLEAQCQEPCKDTVQIHDITGKDCQDIANKGAKQSGLYFIKPLKANQQFLVYCEIDGSGNGWTVFQKRLDGSVDFKKNWIQYKEGFGHLSPTGTTEFWLGNEKIHLISTQSAIPYALRVELEDWNGRTSTADYAMFKVGPEADKYRLTYAYFAGGDAGDAFDGFDFGDDPSDKFFTSHNGMQFSTWDNDNDKFEGNCAEQDGSGWWMNKCHAGHLNGVYYQGGTYSKASTPNGYDNGIIWATWKTRWYSMKKTTMKIIPFNRLTIGEGQQHHLGGAKQAGDV
notes: Chain of native Fg on a Western ligand blot
B5: no binding (rSdrG(50-597) [2]).

B6: rβ(1-220) (ligand)
chain: QGVNDNEEGFFSARGHRPLDKKREEAPSLRPAPPPISGGGYRARPAKAAATQKKVERKAPDAGGCLHADPDLGVLCPTGCQLQEALLQQERPIRNSVDELNNNVEAVSQTSSSSFQYMYLLKDLWQKRQKQVKDNENVVNEYSSELEKHQLYIDETVNSNIPTNLRVLRSILENLRSKIQKLESDVSAQMEYCRTPCTVSCNIPVVSGKECEEIIRKGGE
notes: range 1-220; Expressed in E. coli; whole cell lysate on the blot; also called recombinant truncate encompassing residues 1-220; not shown: N-terminal His-tag or GST fusion
B6: binds (rSdrG(50-597) [4]).

B7: rβ(1-95) (ligand)
chain: QGVNDNEEGFFSARGHRPLDKKREEAPSLRPAPPPISGGGYRARPAKAAATQKKVERKAPDAGGCLHADPDLGVLCPTGCQLQEALLQQERPIRN
notes: range 1-95; Expressed in E. coli; whole cell lysate on the blot; also called recombinant truncate encompassing residues 1-95; not shown: N-terminal His-tag or GST fusion
B7: binds (rSdrG(50-597) [4]).

B8: native Bβ chain of fibrinogen (ligand)
chain: QGVNDNEEGFFSARGHRPLDKKREEAPSLRPAPPPISGGGYRARPAKAAATQKKVERKAPDAGGCLHADPDLGVLCPTGCQLQEALLQQERPIRNSVDELNNNVEAVSQTSSSSFQYMYLLKDLWQKRQKQVKDNENVVNEYSSELEKHQLYIDETVNSNIPTNLRVLRSILENLRSKIQKLESDVSAQMEYCRTPCTVSCNIPVVSGKECEEIIRKGGETSEMYLIQPDSSVKPYRVYCDMNTENGGWTVIQNRQDGSVDFGRKWDPYKQGFGNVATNTDGKNYCGLPGEYWLGNDKISQLTRMGPTELLIEMEDWKGDKVKAHYGGFTVQNEANKYQISVNKYRGTAGNALMDGASQLMGENRTMTIHNGMFFSTYDRDNDGWLTSDPRKQCSKEDGGGWWYNRCHAANPNGRYYWGGQYTWDMAKHGTDDGVVWMNWKGSWYSMRKMSMKIRPFFPQQ
notes: Chain of native Fg on a Western ligand blot; also called Fg Bβ chain
B8: binds (rSdrG(50-597) [5]).

B9: rβ(25-195) (ligand)
chain: EAPSLRPAPPPISGGGYRARPAKAAATQKKVERKAPDAGGCLHADPDLGVLCPTGCQLQEALLQQERPIRNSVDELNNNVEAVSQTSSSSFQYMYLLKDLWQKRQKQVKDNENVVNEYSSELEKHQLYIDETVNSNIPTNLRVLRSILENLRSKIQKLESDVSAQMEYCRT
notes: range 25-195; Expressed in E. coli; whole cell lysate on the blot; The text says it lacks the N-terminal 25 residues although the name begins at 25; not shown: N-terminal His-tag or GST fusion
B9: no binding (tested: 0.5 µM) (rSdrG(50-597) [2]).

B10: rβ(1-195) (ligand)
chain: QGVNDNEEGFFSARGHRPLDKKREEAPSLRPAPPPISGGGYRARPAKAAATQKKVERKAPDAGGCLHADPDLGVLCPTGCQLQEALLQQERPIRNSVDELNNNVEAVSQTSSSSFQYMYLLKDLWQKRQKQVKDNENVVNEYSSELEKHQLYIDETVNSNIPTNLRVLRSILENLRSKIQKLESDVSAQMEYCRT
notes: range 1-195; Expressed in E. coli; whole cell lysate on the blot; also called recombinant truncate encompassing residues 1-195; not shown: N-terminal His-tag or GST fusion
B10: binds (rSdrG(50-597) [4]).

B11: fluorescein-labeled β1-25 peptide (peptide)
peptide: QGVNDNEEGFFSARGHRPLDKKREE
modifications: ends and bridges not checked; also: fluorescein label, position not given here
notes: used at 10 nM in fluorescence polarization; also called fluorescein-labeled N-terminal Bβ chain peptide β1-25; labeled peptide
B11 gave a Kd (rSdrG(50-597) [6]) of 140 nM.

B12: peptide β6-20 (peptide)
peptide: NEEGFFSARGHRPLD
notes: Synthetic peptide made in the inventors' laboratory
B12: binds (rSdrG(50-597) [3]).

NEEGFFSARGHRPLDKKREE (Synthetic peptide (Research Genetics)) [peptide β6-25]: binds (rSdrG(50-597) [3]).

— US20030044418A1 (TEXAS A AND M UNIVERSITY SYSTEM UNIVERSITY, published 2003)
